In paper PMC4754659, “Differential regulation of taurine biosynthesis in rainbow trout and Japanese flounder” (Scientific Reports, 2016):
Numbering of substitutions follows the chain as printed. In names and notes the source's numbering stands.

How the values were obtained:
[1] = substrate: N[C@@H](CS)C(=O)O; assay: HPLC of CSA product (OPA derivatised); assay type: biochemical, Oncorhynchus mykiss; conditions: MES 62.5 mM (pH 6.1 given for tissue buffer), 0.3 mM ferrous sulfate, 62.5 μM bathocuproine disulfonate, O2 (air), 37 °C, fit at 0–4 mM, substrate inhibition above 4 mM
[2] = substrate: N[C@@H](CS(=O)O)C(=O)O; assay: HPLC of hypotaurine product (OPA derivatised); assay type: biochemical, Paralichthys olivaceus; conditions: 100 mM NaH2PO4, 10 μM PLP, 37 °C, 10 min, CSA 0–15 mM, pH not given for assay (enzyme buffer pH 7.4)
[3] = substrate: N[C@@H](CS(=O)O)C(=O)O; assay: HPLC of hypotaurine product (OPA derivatised); assay type: biochemical, Oncorhynchus mykiss; conditions: 100 mM NaH2PO4, 10 μM PLP, 37 °C, 10 min, CSA 0–15 mM, pH not given for assay (enzyme buffer pH 7.4)
[4] = substrate: N[C@@H](CS)C(=O)O; assay: HPLC of CSA product (OPA derivatised); assay type: biochemical, Paralichthys olivaceus; conditions: MES 62.5 mM (pH 6.1 given for tissue buffer), 0.3 mM ferrous sulfate, 62.5 μM bathocuproine disulfonate, O2 (air), 37 °C, fit at 0–4 mM, substrate inhibition above 4 mM

B1: rainbow trout CDO (Oncorhynchus mykiss) (protein)
chain: MDQTELLKPETLDDLIKVLHKIFESDNINVEEVQNIMEAYDSNPQEWMKFAKFDQFRYTRNLVDEGNGKFNLMILCWGEGHGSSIHDHTDSHCFMKLLQGQLKETLFEWPDKKTCNMVQKSQRILQTNQCAYINDSFGLHRVENASHTECSASLHLYSPPFKTCQTFDQRTGHKNTVKMTFWSKFGERTPFETTVSQENN
notes: full-length ORF (200 aa printed, ORF 600 bp), N-terminal 6xHis tag, pET-28a, E. coli BL21(DE3), HisTrap and Superdex 200, iron supplemented; partly Cys-Tyr crosslinked
Km [1]: 790 ± 90 µM | kcat [1]: 16.72 ± 0.67 s⁻¹

B2: Japanese flounder CSD (Paralichthys olivaceus) (protein)
chain: MNEPLLDNSEGQLFLTEAFKVIVEEVLCKGTDVKEKVCEWREPEELAALLDLELRENGEPQHQLLQRIRDVAKYSVKTSHPRFFNQQFAGVDYHSLAGRFLTESLNTNLFTYEVAPVFVLMETEVLRGLRQLVGWTEGDGIFCPGGSTSNMYAMNLARYRLFPEVKTQGLWGLPRLTVFTSQESHYSVKKGAGFLGLGTDNVILVKVDDGGRMIPSDLDEKITLTKSQGAVPFLVSCTAGTTVQGAFDPLDHIADVCEKHKLWLHVDAAWGGSVLFSKQHRHLMKGVDRANSVAWNPHKMLVAGLQCSALLLKDTTNLLKQCHCASATYLFQQDKFYDVNLDIGDKSLQCSRKVDCLKLWLMWKAVGSNGLAERVDKAFFHVRYLVEQMKKREGFHLLGQPEFVNVCFWYIPPSLRGKEGDSDYQDRLAKVAPVIKERMVKQGTMMVGYQPLANRVNFFRVIIFSPLISQRDIDFFLDEIERLGNDL
notes: full-length ORF (487 aa printed, ORF 1461 bp), N-terminal 6xHis tag, pET-28a, E. coli BL21(DE3), HisTrap and Superdex 200
Km [2]: 3450 ± 380 µM | kcat [2]: 1.52 ± 0.13 s⁻¹

B3: Japanese flounder CSD (Paralichthys olivaceus; F110Y/N108S) (protein)
chain: B2 chain with N108S, F110Y
notes: as for B2
Km [2]: 1830 ± 170 µM | kcat [2]: 6.26 ± 0.20 s⁻¹

B4: rainbow trout CSD (Oncorhynchus mykiss) (protein)
chain: MSHLPRFWNLGWSSFLDWWSNQSVVSEQGPSPLYGQQEMNEPLLDNSEGQLFLTEAFKVIVEEVLCKGTDVKEKVCEWREPEELAALLDLELRENGEPQHQLLQRIRDVAKYSVKTNHPRFFNQLFAGVDYHALTGRFLTEALNTSQYTYEVAPVFVLMEDEVLSKLRSLVGWAEGDGIFCPGGTMSNMYAMNVARYRAFPEVKLKGMWSLPRLAVFTSQQSHYSVMKAAAFQGIGTENVFKVKVDDRGCMIPEDLGETIELAKSQGAVPFFVHATSGTTVQGAFDPLEPIADICDRQGLWMHVDAAWGGSVLFSKEHKHLMRGVERADSVTWNPHKMMLTGLQCSAILLKDTTHLLKHCHSADAKYLFQQDKFYDTSLDTGDKSIQCGRKVDCLKLWLMWKAVGSKGLEERVDRAFTHTRYLVEEMKRREGFELIGKPLFVNVCFWFIPPSLRGKENSPDYNDRLSKVAPVIKERMMKQGTMMLGYQPQGGRVNFFRMIVISPQLSHQDMTFCLNEIERLGSDL
notes: full-length ORF (525 aa, ORF 1575 bp), N-terminal 6xHis tag, pET-28a, E. coli BL21(DE3), HisTrap and Superdex 200
Km [3]: 2300 ± 240 µM | kcat [3]: 4.72 ± 0.36 s⁻¹

B5: rainbow trout CSD (Oncorhynchus mykiss; S146N/Y148F) (protein)
chain: B4 chain with S146N, Y148F
notes: as for B4
Km [3]: 2730 ± 270 µM | kcat [3]: 1.86 ± 0.07 s⁻¹

B6: Japanese flounder CDO (Paralichthys olivaceus) (protein)
chain: MEHTELLKPETLDELIKTLHDIFDSDCINVEEVQGVMESYESKPQEWMKYAKFDQYRYTRNLVDEGNGKFNLMILCWGEGHGSSIHDHTDSHCFMKLLQGQLKETLFEWPDCQSHGDMVQRSQRILQENKVAYINDSLGLHRVENVSHTECAVSLHLYSPPFQACQTFDQRTGHRNTVKMTFWSKYGERTPFETTVSQENN
notes: full-length ORF (201 aa printed, ORF 603 bp), N-terminal 6xHis tag, pET-28a, E. coli BL21(DE3), HisTrap and Superdex 200, iron supplemented; partly Cys-Tyr crosslinked
Km [4]: 1230 ± 150 µM | kcat [4]: 29.36 ± 1.52 s⁻¹
